Measurements taken from article PMC7144918.

B1: BZ57/BZ109 25 bp Cy3 duplex (dsDNA)
DNA 1: GATGCCTCCAAGGTCGACGATGCAG
DNA 2: CTGCATCGTCGACCTTGGAGGCATC
modifications: internal Cy3 in backbone after nt 4 of each strand
B2: BZ91/BZ107 25 bp duplex (dsDNA)
DNA 1: GATGCCTCCAAGGTCGACGATGCAG
DNA 2: CTGCATCGTCGACCTTGGAGGCATC

Target: Ku70/80 heterodimer (Ku) (UniProt P12956;P13010 1-609;1-732)
Experiment: EMSA

Chain of Ku70/80 heterodimer (Ku) (P12956 whole entry, chain 1 of 2): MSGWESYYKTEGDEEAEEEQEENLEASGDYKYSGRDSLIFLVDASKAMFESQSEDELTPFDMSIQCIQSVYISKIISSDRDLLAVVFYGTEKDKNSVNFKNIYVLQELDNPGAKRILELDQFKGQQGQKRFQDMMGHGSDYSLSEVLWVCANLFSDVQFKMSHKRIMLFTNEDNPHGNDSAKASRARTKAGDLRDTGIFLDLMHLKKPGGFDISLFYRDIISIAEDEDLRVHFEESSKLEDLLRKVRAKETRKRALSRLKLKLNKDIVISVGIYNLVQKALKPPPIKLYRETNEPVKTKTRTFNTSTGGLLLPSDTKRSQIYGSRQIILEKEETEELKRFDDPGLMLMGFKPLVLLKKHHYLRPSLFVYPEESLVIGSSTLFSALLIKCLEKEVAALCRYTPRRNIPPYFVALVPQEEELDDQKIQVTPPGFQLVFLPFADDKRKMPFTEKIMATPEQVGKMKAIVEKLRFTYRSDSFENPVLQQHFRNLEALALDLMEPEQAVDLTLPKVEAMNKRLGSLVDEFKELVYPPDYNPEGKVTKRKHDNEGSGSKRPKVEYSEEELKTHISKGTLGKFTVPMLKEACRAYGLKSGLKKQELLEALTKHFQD
Chain of Ku70/80 heterodimer (Ku) (P13010 whole entry, chain 2 of 2): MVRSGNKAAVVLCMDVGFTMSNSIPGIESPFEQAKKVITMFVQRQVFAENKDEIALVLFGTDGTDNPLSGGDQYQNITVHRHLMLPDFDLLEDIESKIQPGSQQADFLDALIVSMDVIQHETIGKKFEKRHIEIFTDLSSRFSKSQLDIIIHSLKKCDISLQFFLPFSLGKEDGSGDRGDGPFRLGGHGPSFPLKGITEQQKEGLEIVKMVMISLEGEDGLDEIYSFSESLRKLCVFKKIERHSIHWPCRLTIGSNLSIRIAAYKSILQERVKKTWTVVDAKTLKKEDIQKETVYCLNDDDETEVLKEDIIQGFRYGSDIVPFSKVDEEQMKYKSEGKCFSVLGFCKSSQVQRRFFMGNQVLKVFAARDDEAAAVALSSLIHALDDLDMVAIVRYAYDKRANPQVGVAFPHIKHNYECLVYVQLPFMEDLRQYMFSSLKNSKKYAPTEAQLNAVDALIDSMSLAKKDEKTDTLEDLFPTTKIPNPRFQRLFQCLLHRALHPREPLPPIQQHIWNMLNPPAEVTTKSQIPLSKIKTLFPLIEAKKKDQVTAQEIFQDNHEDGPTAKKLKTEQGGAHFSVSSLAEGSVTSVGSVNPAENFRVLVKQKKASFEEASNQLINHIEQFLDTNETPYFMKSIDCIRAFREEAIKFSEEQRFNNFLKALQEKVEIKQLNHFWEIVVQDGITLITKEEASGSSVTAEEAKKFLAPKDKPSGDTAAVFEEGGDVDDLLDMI

| Binder | Kd |
| --- | --- |
| B1 | 0.11 nM |
| B2 | 0.086 nM |
